Measured values reported in patent publication US20200392227A1 (LYVGEN BIOPHARMA, published 2020).
Read-outs that look alike come from different tables or passages of the source.

Key:
[1] = biological target: T1, human FcRIIB/C protein (MednaBio, E1034) (human, UniProt P31994 43-217, limits assumed); test: BLI
T1 construct: Bought as FcRIIB/C; also called FcγRIIB; CD32B
T1 sequence (looked up): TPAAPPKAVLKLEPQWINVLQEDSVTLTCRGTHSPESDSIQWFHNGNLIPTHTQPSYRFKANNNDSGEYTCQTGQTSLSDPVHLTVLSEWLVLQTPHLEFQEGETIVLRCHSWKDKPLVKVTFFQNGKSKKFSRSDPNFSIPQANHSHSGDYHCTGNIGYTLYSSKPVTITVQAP
Summary of the method: (§1)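 Binding was measured by biolayer interferometry on an Octet Red96 System, with commercial human Fc receptor proteins loaded at 20 μg/mL onto anti-penta-HIS biosensors. Sensors were dipped into an 8-point 1:3 dilution series of test IgG starting at 300 nM in PBS with 0.1% BSA and 0.02% Tween-20. Fcγ receptor assays ran at pH 7.2 and FcRn assays at pH 6. Kd, kon and koff came from global fitting to a 1:1 binding model.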

[2] = biological target: T2, human FcRIIA protein (MednaBio, E1033) (human, UniProt P12318 34-218, limits assumed); test: BLI
T2 construct: Bought; also called FcγRIIA
T2 sequence (looked up): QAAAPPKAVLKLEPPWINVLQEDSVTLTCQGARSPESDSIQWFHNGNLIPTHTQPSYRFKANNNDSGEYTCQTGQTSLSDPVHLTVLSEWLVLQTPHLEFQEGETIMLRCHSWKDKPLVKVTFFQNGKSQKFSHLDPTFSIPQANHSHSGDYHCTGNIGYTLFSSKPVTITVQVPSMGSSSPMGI
Summary of the method: as §1

[3] = biological target: T3, human FcRIIIA-F158 protein (MednaBio, E1036) (human, UniProt P08637 17-208); test: BLI
T3 construct: Bought; also called FcγRIIIA(F)
T3 sequence (P08637 17-208 limits assumed): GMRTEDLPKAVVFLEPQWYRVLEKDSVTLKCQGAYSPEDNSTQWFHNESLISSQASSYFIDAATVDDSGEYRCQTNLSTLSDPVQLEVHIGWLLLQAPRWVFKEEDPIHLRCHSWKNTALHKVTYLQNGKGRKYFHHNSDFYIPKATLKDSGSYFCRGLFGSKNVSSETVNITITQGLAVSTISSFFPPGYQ
Summary of the method: as §1

[4] = biological target: T4, human FcRI protein (MednaBio, E1031) (human, UniProt P12314 16-288, limits assumed); test: BLI
T4 construct: Bought; loaded on anti-penta-HIS biosensors; also called FcγRI
T4 sequence (P12314 16-288 limits assumed): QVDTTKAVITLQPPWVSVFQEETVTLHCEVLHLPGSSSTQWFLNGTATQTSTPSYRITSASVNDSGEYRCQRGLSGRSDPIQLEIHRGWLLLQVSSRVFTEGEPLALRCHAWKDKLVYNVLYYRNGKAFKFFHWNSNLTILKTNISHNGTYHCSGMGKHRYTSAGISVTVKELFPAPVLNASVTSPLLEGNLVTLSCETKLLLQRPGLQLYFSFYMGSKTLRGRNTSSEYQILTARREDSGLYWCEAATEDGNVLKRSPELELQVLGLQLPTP
Summary of the method: as §1

[5] = biological target: T5, human FcRIIIB protein (MednaBio, E1037) (human, UniProt O75015 17-200); test: BLI
T5 construct: Bought; also called FcγRIIIB; FcgRIIIB
T5 sequence (O75015 17-200 limits assumed): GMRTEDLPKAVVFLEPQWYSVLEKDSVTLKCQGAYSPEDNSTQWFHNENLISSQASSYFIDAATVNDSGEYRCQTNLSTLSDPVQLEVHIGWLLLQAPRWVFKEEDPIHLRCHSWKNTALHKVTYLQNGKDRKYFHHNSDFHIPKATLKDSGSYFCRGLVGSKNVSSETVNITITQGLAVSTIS
Summary of the method: as §1

[6] = biological target: T6, human FcRn protein (MednaBio, E1032) (human, UniProt P55899 24-297; P61769 21-119); test: BLI
T6 construct: Bought; assays at pH 6
T6 sequence (P55899 24-297 limits assumed, form in doubt, chain 1 of 2): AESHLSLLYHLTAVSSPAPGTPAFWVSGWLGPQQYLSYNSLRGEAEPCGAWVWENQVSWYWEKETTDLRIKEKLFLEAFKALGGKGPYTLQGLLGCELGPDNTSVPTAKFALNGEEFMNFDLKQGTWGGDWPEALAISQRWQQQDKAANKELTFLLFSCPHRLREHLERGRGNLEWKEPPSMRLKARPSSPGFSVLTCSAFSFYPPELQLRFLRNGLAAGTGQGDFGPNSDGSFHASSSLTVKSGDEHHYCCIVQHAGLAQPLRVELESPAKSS
T6 sequence (P61769 21-119 limits assumed, form in doubt, chain 2 of 2): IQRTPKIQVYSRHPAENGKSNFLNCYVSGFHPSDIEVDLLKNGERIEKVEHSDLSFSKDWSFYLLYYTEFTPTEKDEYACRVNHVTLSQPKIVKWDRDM
Summary of the method: as §1

[7] = biological target: T7, human FcRIIIA-V158 protein (MednaBio, E1035) (human, UniProt P08637 17-208); test: BLI
T7 construct: Bought; also called FcγRIIIA(V); FcgRIIIA(V)
T7 sequence (P08637 17-208 F176V): as the sequence (P08637 17-208 limits assumed) above, with F160V counted along it
Summary of the method: as §1

[8] = biological target: T8, human FcγRIIA(R131) expressed on CHO cells (human, UniProt P12318 34-317); test: FACS, CHO cells expressing FcγRIIA(R131)
T8 construct: whole, on cells
T8 sequence (looked up): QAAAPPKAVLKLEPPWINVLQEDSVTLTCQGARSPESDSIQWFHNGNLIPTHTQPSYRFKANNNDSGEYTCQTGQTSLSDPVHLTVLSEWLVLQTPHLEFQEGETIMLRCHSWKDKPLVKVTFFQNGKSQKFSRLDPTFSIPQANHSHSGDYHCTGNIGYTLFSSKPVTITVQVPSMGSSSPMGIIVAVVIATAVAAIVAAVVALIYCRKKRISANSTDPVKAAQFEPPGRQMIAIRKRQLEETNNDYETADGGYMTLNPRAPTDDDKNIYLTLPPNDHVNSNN
Protocol: (§2) For FACS analysis of the IgG mutants' binding to different FcγRs, FcγR overexpressing CHO cells were harvested using trypsin-EDTA and were suspended in cold staining buffer (3% BSA in PBS). Test IgG mutants, which were diluted in staining buffer, were added into the cells. The mixture was incubated 4° C. for 2 hours, and then washed twice with cold staining buffer and re-suspended in PE-labeled anti-human IgG followed by incubation at 4° C. for 2 hours. The mixture was washed twice with staining buffer and re-suspended in 2% PFA in PBS for FACS.

[9] = biological target: T9, human FcγRIIC expressed on CHO cells (human, UniProt P31995 43-323); test: FACS, CHO cells expressing FcγRIIC
T9 construct: whole, on cells
T9 sequence (looked up): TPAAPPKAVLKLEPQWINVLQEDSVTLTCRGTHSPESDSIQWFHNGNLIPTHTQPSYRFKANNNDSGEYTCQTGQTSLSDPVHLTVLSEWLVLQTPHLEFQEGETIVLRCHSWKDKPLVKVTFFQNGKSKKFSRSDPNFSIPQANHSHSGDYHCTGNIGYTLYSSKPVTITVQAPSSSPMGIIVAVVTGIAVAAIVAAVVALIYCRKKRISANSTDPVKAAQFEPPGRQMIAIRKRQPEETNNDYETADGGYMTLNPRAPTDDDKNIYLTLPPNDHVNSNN

[10] = biological target: T10, human FcγRIIA(H131) expressed on CHO cells (human, UniProt P12318 34-317); test: FACS, CHO cells expressing FcγRIIA(H131)
T10 construct: whole, on cells
T10 sequence (looked up): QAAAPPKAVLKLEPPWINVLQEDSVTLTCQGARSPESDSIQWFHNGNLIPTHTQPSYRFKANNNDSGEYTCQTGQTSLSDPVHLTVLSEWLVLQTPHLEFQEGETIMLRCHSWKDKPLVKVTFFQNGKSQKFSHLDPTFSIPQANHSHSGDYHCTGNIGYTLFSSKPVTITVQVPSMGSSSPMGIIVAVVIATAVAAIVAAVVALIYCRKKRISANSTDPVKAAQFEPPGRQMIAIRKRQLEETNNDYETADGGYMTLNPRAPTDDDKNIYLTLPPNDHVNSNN
Protocol: as §2

[11] = biological target: T1, human FcRIIB/C protein (MednaBio, E1034); test: BLI; remark: listed apart in the source
Protocol: (§3) These IgG mutants were tested for binding to a panel of human Fc receptors (FcRs), including FcRn, using the Octet Red96 System (ForteBio, Model #Red96). Human FcR proteins were purchased commercially (FcRn, MednaBio, E1032; FcRI, MednaBio, E1031; FcRIIA, MednaBio, E1033; FcRIIB/C, MednaBio, E1034; FcRIIIA-F158, MednaBio, E1036; FcRIIIA-V158, MednaBio, E1035; FcRIIIB, MednaBio, E1037). All Fey receptor assays were performed at pH 7.2; all FcRn assays were performed at pH 6. The Fey receptors were loaded onto anti-penta-HIS1K (ForteBio, Cat #18-5122) biosensors at a concentration of 20 μg/mL. The loaded biosensors was then be dipped into an 8-point 1:3 dilution series of the test IgG molecules (including controls and the mutants described herein) in PBS with 0.1% BSA, 0.02% Tween-20 (pH 7.2) at a starting concentration of 300 nM. Kinetic analysis was performed using a 1:1 binding model and global fitting.

[12] = biological target: T2, human FcRIIA protein (MednaBio, E1033); test: BLI; remark: listed apart in the source
Protocol: as §3

[13] = biological target: T3, human FcRIIIA-F158 protein (MednaBio, …); test: BLI; remark: listed apart in the source
Protocol: as §3

[14] = biological target: T4, human FcRI protein (MednaBio, E1031); test: BLI; remark: listed apart in the source
Protocol: as §3

[15] = biological target: T5, human FcRIIIB protein (MednaBio, E1037); test: BLI; remark: listed apart in the source
Protocol: as §3

[16] = biological target: T6, human FcRn protein (MednaBio, E1032); test: BLI; remark: listed apart in the source
Protocol: as §3

[17] = biological target: T7, human FcRIIIA-V158 protein (MednaBio, …); test: BLI; remark: listed apart in the source
Protocol: as §3

B1: anti-CD137 IgG4 with Fc variant G4m9 (antibody)
heavy: EVQLVQSGAEVKKPGESLRISCKGSGYSFSTYWISWVRQMPGKGLEWMGKIYPGDSYTNYSPSFQGQVTISADKSISTAYLQWSSLKASDTAMYYCARGYGIFDYWGQGTLVTVSSASTKGPSVFPLAPCSRSTSESTAALGCLVKDYFPEPVTVSWNSGALTSGVHTFPAVLQSSGLYSLSSVVTVPSSSLGTKTYTCNVDHKPSNTKVDKRVESKYGPPCPPCPAPEFLGGPSVFLFPPKPKDTLMISRTPEVTCVVVDVEQEDPEVQFNWYVDGVEVHNAKTKPREEQFNSTYRVVSVLTVLHQDWLNGKEYKCKVSNKGFPSSIEKTISKAKGQPREPQVYTLPPSQEEMTKNQVSLTCLVKGFYPSDIAVEWESNGQPENNYKTTPPVLDSDGSFFLYSRLTVDKSRWQEGNVFSCSVMHEALHNHYTQKSLSLSLGK
light: SYELTQPPSVSVSPGQTASITCSGDNIGDQYAHWYQQKPGQSPVLVIYQDKNRPSGIPERFSGSNSGNTATLTISGTQAMDEADYYCATYTGFGSLAVFGGGTKLTVLGQPKAAPSVTLFPPSSEELQANKATLVCLISDFYPGAVTVAWKADSSPVKAGVETTTPSKQSNNKYAASSYLSLTPEQWKSHRSYSCQVTHEGSTVEKTVAPTECS
notes: copies: 2 + 2
Question: Which results are given for B1?
Answer: Kd [1]: 140 nM; koff [1]: 0.013 s⁻¹; kon [1]: 94000 M⁻¹ s⁻¹; binding result [2]: no binding (tested: 300 nM); binding result [3]: no binding (tested: 300 nM); Kd [4]: 17 nM; koff [4]: 0.0074 s⁻¹; kon [4]: 440000 M⁻¹ s⁻¹; binding result [5]: no binding (tested: 300 nM); Kd [6]: 75 nM; koff [6]: 0.017 s⁻¹; kon [6]: 230000 M⁻¹ s⁻¹; binding result [7]: no binding (tested: 300 nM); binding result [8]: binds; binding result [9]: binds; binding result [10]: no binding (tested: 10 ug/ml)

B2: anti-CD137 IgG4 with Fc variant G4m20 (antibody)
heavy: EVQLVQSGAEVKKPGESLRISCKGSGYSFSTYWISWVRQMPGKGLEWMGKIYPGDSYTNYSPSFQGQVTISADKSISTAYLQWSSLKASDTAMYYCARGYGIFDYWGQGTLVTVSSASTKGPSVFPLAPCSRSTSESTAALGCLVKDYFPEPVTVSWNSGALTSGVHTFPAVLQSSGLYSLSSVVTVPSSSLGTKTYTCNVDHKPSNTKVDKRVESKYGPPCPPCPAPEFLGSVFLFPPKPKDTLMISRTPEVTCVVVDVSQEDPEVQFNWYVDGVEVHNAKTKPREEQFNSTYRVVSVLTVLHQDWLNGKEYKCKVSNKGLPSSIEKTISKAKGQPREPQVYTLPPSQEEMTKNQVSLTCLVKGFYPSDIAVEWESNGQPENNYKTTPPVLDSDGSFFLYSRLTVDKSRWQEGNVFSCSVMHEALHNHYTQKSLSLSLGK
light: SYELTQPPSVSVSPGQTASITCSGDNIGDQYAHWYQQKPGQSPVLVIYQDKNRPSGIPERFSGSNSGNTATLTISGTQAMDEADYYCATYTGFGSLAVFGGGTKLTVLGQPKAAPSVTLFPPSSEELQANKATLVCLISDFYPGAVTVAWKADSSPVKAGVETTTPSKQSNNKYAASSYLSLTPEQWKSHRSYSCQVTHEGSTVEKTVAPTECS
notes: copies: 2 + 2
Question: Does B2 bind [11]?
Answer: Result: no binding (tested: 300 nM)

Question: Does B2 bind [12]?
Answer: Result: no binding (tested: 300 nM)

Question: Does B2 bind [13]?
Answer: Result: no binding (tested: 300 nM)

Question: Does B2 bind [14]?
Answer: Result: no binding (tested: 300 nM)

Question: Does B2 bind [15]?
Answer: Result: no binding (tested: 300 nM)

Question: What about the Kd [16] of the same binder?
Answer: Its Kd is 19 nM.

Question: And the koff [16]?
Answer: Its koff is 0.0098 s⁻¹.

Question: And the kon [16]?
Answer: The kon was 510000 M⁻¹ s⁻¹.

Question: Does B2 bind [17]?
Answer: Result: no binding (tested: 300 nM)

Question: Does B2 bind [9]?
Answer: Result: no binding (tested: 10 ug/ml)

Question: Does B2 bind [10]?
Answer: Result: no binding (tested: 10 ug/ml)
